Test results published in patent publication US20250101120A1 (BEIJING SOLOBIO GENETECHNOLOGY, published 2025).

T1: hFc-hFasL (fusion protein of human Fc fragment and human FasL extracellular region) (human, UniProt P48023 134-281)
T1 sequence: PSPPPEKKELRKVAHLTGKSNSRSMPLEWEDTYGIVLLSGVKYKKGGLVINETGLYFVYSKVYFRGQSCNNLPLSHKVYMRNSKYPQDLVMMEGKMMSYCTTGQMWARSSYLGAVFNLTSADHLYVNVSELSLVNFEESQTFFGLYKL


The binders below were run against T1, hFc-hFasL (fusion protein of human Fc …) (assay: cell-based or functional assay).

Row | Binder | HepG2 IC50(nM), FasL antigen-induced cell apoptosis [nM] | Jurkat IC50(nM), FasL antigen-induced cell apoptosis [nM]
1 | humFL-M54-1 (antibody, human IgG4, V domains shown) VH: QVQLVQSGAEVKKPGSSVKVSCKASGYTFTRFDISWVRQAPGQGLEWIGWIFPGDGSSQYNENFKGRATLTTDKSTSTAYMELSSLRSEDTAVYFCARSLISTAMFDHWGQGTLVTVSS VL: EIVMTQSPATLSVSPGERATLSCRASKSVSTSDFSYIHWYQQKPGQPPRLLIFLASHLESGIPARFSGSGSGTEFTLTISSLQSEDFAVYYCQHSRELPRTFGQGTKVEIK | 0.028 | 0.035
2 | humFL-M54-8 (antibody, human IgG4, V domains shown) VH: QVQLVQSGAEVKKPGSSVKVSCKASGYTFTRFDISWVRQAPGQGLEWMGWIFPGDGSSQYNENFKGRATITTDKSTSTAYMELSSLRSEDTAVYFCARSLISTAMFDHWGQGTLVTVSS VL: EIVMTQSPATLSVSPGERATLSCRASKSVSTSDFSYIHWYQQKPGQPPRLLIYLASHLESGIPARFSGSGSGTEFTLTISSLQSEDFAVYYCQHSRELPRTFGQGTKVEIK | 0.025 | 0.044
3 | humFL-M54-7 (antibody, human IgG4, V domains shown) VH: QVQLVQSGAEVKKPGSSVKVSCKASGYTFTRFDISWVRQAPGQGLEWMGWIFPGDGSSQYNENFKGRATLTTDKSTSTAYMELSSLRSEDTAVYFCARSLISTAMFDHWGQGTLVTVSS VL: EIVMTQSPATLSVSPGERATLSCRASKSVSTSDFSYIHWYQQKPGQPPRLLIYLASHLESGIPARFSGSGSGTEFTLTISSLQSEDFAVYYCQHSRELPRTFGQGTKVEIK | 0.028 | 0.059
4 | humFL-M54-3 (antibody, human IgG4, V domains shown) VH: QVQLVQSGAEVKKPGSSVKVSCKASGYTFTRFDISWVRQAPGQGLEWMGWIFPGDGSSQYNENFKGRATITTDKSTSTAYMELSSLRSEDTAVYFCARSLISTAMFDHWGQGTLVTVSS VL: EIVMTQSPATLSVSPGERATLSCRASKSVSTSDFSYIHWYQQKPGQPPRLLIFLASHLESGIPARFSGSGSGTEFTLTISSLQSEDFAVYYCQHSRELPRTFGQGTKVEIK | 0.035 | 
5 | humFL-M54-5 (antibody, human IgG4, V domains shown) VH: QVQLVQSGAEVKKPGSSVKVSCKASGYTFTRFDISWVRQAPGQGLEWMGWIFPGDGSSQYNENFKGRVTITADKSTSTAYMELSSLRSEDTAVYFCARSLISTAMFDHWGQGTLVTVSS VL: EIVMTQSPATLSVSPGERATLSCRASKSVSTSDFSYIHWYQQKPGQPPRLLIFLASHLESGIPARFSGSGSGTEFTLTISSLQSEDFAVYYCQHSRELPRTFGQGTKVEIK | 0.027 | 0.052
6 | humFL-M54-15 (antibody, human IgG4, V domains shown) VH: QVQLVQSGAEVKKPGSSVKVSCKASGYTFTRFDISWVRQAPGQGLEWMGWIFPGDGSSQYNENFKGRVTITADKSTSTAYMELSSLRSEDTAVYFCARSLISTAMFDHWGQGTLVTVSS VL: EIVMTQSPATLSVSPGERATLSCRASKSVSTSDFSYIHWYQQKPGQAPRLLIYLASHLESGIPARFSGSGSGTEFTLTISSLQSEDFAVYYCQHSRELPRTFGQGTKVEIK | 0.03 | 0.015

Now from value to binder:

Row | HepG2 IC50(nM), FasL antigen-induced cell apoptosis [nM] | Jurkat IC50(nM), FasL antigen-induced cell apoptosis [nM] | Binder
7 | 0.031 |  | humFL-M54-6 (antibody, human IgG4, V domains shown) VH: QVQLVQSGAEVKKPGSSVKVSCKASGYTFTRFDISWVRQAPGQGLEWIGWIFPGDGSSQYNENFKGRATLTTDKSTSTAYMELSSLRSEDTAVYFCARSLISTAMFDHWGQGTLVTVSS VL: EIVMTQSPATLSVSPGERATLSCRASKSVSTSDFSYIHWYQQKPGQPPRLLIYLASHLESGIPARFSGSGSGTEFTLTISSLQSEDFAVYYCQHSRELPRTFGQGTKVEIK
8 | 0.026 | 0.035 | humFL-M54-9 (antibody, human IgG4, V domains shown) VH: QVQLVQSGAEVKKPGSSVKVSCKASGYTFTRFDISWVRQAPGQGLEWMGWIFPGDGSSQYNENFKGRVTLTTDKSTSTAYMELSSLRSEDTAVYFCARSLISTAMFDHWGQGTLVTVSS VL: EIVMTQSPATLSVSPGERATLSCRASKSVSTSDFSYIHWYQQKPGQPPRLLIYLASHLESGIPARFSGSGSGTEFTLTISSLQSEDFAVYYCQHSRELPRTFGQGTKVEIK
9 | 0.03 | 0.053 | humFL-M54-4 (antibody, human IgG4, V domains shown) VH: QVQLVQSGAEVKKPGSSVKVSCKASGYTFTRFDISWVRQAPGQGLEWMGWIFPGDGSSQYNENFKGRVTLTTDKSTSTAYMELSSLRSEDTAVYFCARSLISTAMFDHWGQGTLVTVSS VL: EIVMTQSPATLSVSPGERATLSCRASKSVSTSDFSYIHWYQQKPGQPPRLLIFLASHLESGIPARFSGSGSGTEFTLTISSLQSEDFAVYYCQHSRELPRTFGQGTKVEIK
10 | 0.028 | 0.037 | humFL-M54-11 (antibody, human IgG4, V domains shown) VH: QVQLVQSGAEVKKPGSSVKVSCKASGYTFTRFDISWVRQAPGQGLEWIGWIFPGDGSSQYNENFKGRATLTTDKSTSTAYMELSSLRSEDTAVYFCARSLISTAMFDHWGQGTLVTVSS VL: EIVMTQSPATLSVSPGERATLSCRASKSVSTSDFSYIHWYQQKPGQAPRLLIYLASHLESGIPARFSGSGSGTEFTLTISSLQSEDFAVYYCQHSRELPRTFGQGTKVEIK
11 | 0.031 | 0.028 | humFL-M54-2 (antibody, human IgG4, V domains shown) VH: QVQLVQSGAEVKKPGSSVKVSCKASGYTFTRFDISWVRQAPGQGLEWMGWIFPGDGSSQYNENFKGRATLTTDKSTSTAYMELSSLRSEDTAVYFCARSLISTAMFDHWGQGTLVTVSS VL: EIVMTQSPATLSVSPGERATLSCRASKSVSTSDFSYIHWYQQKPGQPPRLLIFLASHLESGIPARFSGSGSGTEFTLTISSLQSEDFAVYYCQHSRELPRTFGQGTKVEIK
12 | 0.032 | 0.015 | humFL-M54-12 (antibody, human IgG4, V domains shown) VH: QVQLVQSGAEVKKPGSSVKVSCKASGYTFTRFDISWVRQAPGQGLEWMGWIFPGDGSSQYNENFKGRATLTTDKSTSTAYMELSSLRSEDTAVYFCARSLISTAMFDHWGQGTLVTVSS VL: EIVMTQSPATLSVSPGERATLSCRASKSVSTSDFSYIHWYQQKPGQAPRLLIYLASHLESGIPARFSGSGSGTEFTLTISSLQSEDFAVYYCQHSRELPRTFGQGTKVEIK
13 | 0.023 | 0.038 | humFL-M54-14 (antibody, human IgG4, V domains shown) VH: QVQLVQSGAEVKKPGSSVKVSCKASGYTFTRFDISWVRQAPGQGLEWMGWIFPGDGSSQYNENFKGRVTLTTDKSTSTAYMELSSLRSEDTAVYFCARSLISTAMFDHWGQGTLVTVSS VL: EIVMTQSPATLSVSPGERATLSCRASKSVSTSDFSYIHWYQQKPGQAPRLLIYLASHLESGIPARFSGSGSGTEFTLTISSLQSEDFAVYYCQHSRELPRTFGQGTKVEIK
14 | 0.034 | 0.017 | humFL-M54-10 (antibody, human IgG4, V domains shown) VH: QVQLVQSGAEVKKPGSSVKVSCKASGYTFTRFDISWVRQAPGQGLEWMGWIFPGDGSSQYNENFKGRVTITADKSTSTAYMELSSLRSEDTAVYFCARSLISTAMFDHWGQGTLVTVSS VL: EIVMTQSPATLSVSPGERATLSCRASKSVSTSDFSYIHWYQQKPGQPPRLLIYLASHLESGIPARFSGSGSGTEFTLTISSLQSEDFAVYYCQHSRELPRTFGQGTKVEIK
